Measured values as given in patent US20180127503A1 (EUREKA THERAPEUTICS, published 2018).
Values belong to the binder of their own block, whether it stands above or below them.

How the values were obtained:
[1] = target: T1, human ROR2 expressed on the cell surface (human, UniProt Q01974 34-943); experiment: flow cytometry, NB5 cells (neuroblastoma); design: unit not given here
T1 construct: Endogenous ROR2 of human tumour cell lines; also called cell surface ROR2; ROR2 on tumour cell lines
Protocol: (§1) Human tumour cell lines were authenticated using short tandem repeat (STR) analysis. They were cultured in RPMI1640 (Cellgro) supplemented with 10% fetal bovine serum (FBS, Life Technologies) at 37° C. in a 5% CO₂ humidified incubator. They were harvested, washed in PBS and reacted with ROR2-IgG at 1 ug/10⁶ tumour cells on ice for an hour. #901-IgG was used as a negative control at the same dose. After washing, a secondary PE-conjugated goat anti-human IgG, Fcγ fragment specific (1:100, Jackson ImmunoResearch) was added for another 30 min incubation. Staining was analyzed on a FACSCalibur (BD Biosciences). ROR2 (full length) antibody binding towards multiple cancer cell lines were compared with Rituxan and Herceptin antibodies. The cancer cell lines were derived from breast cancer, colorectal cancer, mesothelioma, hepatocellular carcinoma, ovarian cancer, osteosarcoma, neuroblastoma, etc. ROR2 #90 antibody could recognize most of the tumour cells tested, and in some cases, the binding intensity was higher than Herceptin (see Tables 8 to 10).

[2] = target: T1, human ROR2 expressed on the cell surface; experiment: flow cytometry, COLO 205 cells (CRC); design: unit not given here
Protocol: as §1

[3] = target: T1, human ROR2 expressed on the cell surface; experiment: flow cytometry, HTB26 (MDA-MB-231) cells (breast CA); design: unit not given here
Protocol: as §1

[4] = target: T1, human ROR2 expressed on the cell surface; experiment: flow cytometry, U2OS cells (osteosarcoma); design: unit not given here
Protocol: as §1

[5] = target: T1, human ROR2 expressed on the cell surface; experiment: flow cytometry, HEP G2 cells (HCC); design: unit not given here
Protocol: as §1

[6] = target: T1, human ROR2 expressed on the cell surface; experiment: flow cytometry, LAN-1 cells (neuroblastoma); design: unit not given here
Protocol: as §1

[7] = target: T1, human ROR2 expressed on the cell surface; experiment: flow cytometry, SKOV3 cells (ovarian CA); design: unit not given here
Protocol: as §1

[8] = target: T1, human ROR2 expressed on the cell surface; experiment: flow cytometry, SKNSH cells (neuroblastoma); design: unit not given here
Protocol: as §1

[9] = target: T1, human ROR2 expressed on the cell surface; experiment: flow cytometry, TC71 cells (EW/PNET); design: unit not given here
Protocol: as §1

[10] = target: T1, human ROR2 expressed on the cell surface; experiment: flow cytometry, OVCAR3 cells (ovarian CA); design: unit not given here
Protocol: as §1

[11] = target: T1, human ROR2 expressed on the cell surface; experiment: flow cytometry, M14 cells (melanoma); design: reference not given here
Protocol: as §1

[12] = target: T1, human ROR2 expressed on the cell surface; experiment: flow cytometry, SKES-1 cells (EW/PNET); design: unit not given here
Protocol: as §1

[13] = target: T1, human ROR2 expressed on the cell surface; experiment: flow cytometry, SKMEL-5 cells (melanoma); design: unit not given here
Protocol: as §1

[14] = target: T1, human ROR2 expressed on the cell surface; experiment: flow cytometry, BE(2)S cells (neuroblastoma); design: unit not given here
Protocol: as §1

[15] = target: T1, human ROR2 expressed on the cell surface; experiment: flow cytometry, OCM1 cells (melanoma); design: unit not given here
Protocol: as §1

[16] = target: T1, human ROR2 expressed on the cell surface; experiment: flow cytometry, TC32 cells (EW/PNET); design: unit not given here
Protocol: as §1

[17] = target: T1, human ROR2 expressed on the cell surface; experiment: flow cytometry, BE(1)N cells (neuroblastoma); design: unit not given here
Protocol: as §1

[18] = target: T2, human ROR2 extracellular domain (ROR2 ECD recombinant protein) (human, UniProt Q01974 34-403); experiment: kinetic binding analysis, full length IgG1 on human ROR2-ECD
T2 construct: also called human ROR2-ECD; hROR2-ECD

[19] = target: T1, human ROR2 expressed on the cell surface; experiment: flow cytometry, IMR32 cells (neuroblastoma); design: unit not given here
Protocol: as §1

[20] = target: T1, human ROR2 expressed on the cell surface; experiment: flow cytometry, HTB132 cells (breast CA); design: unit not given here
Protocol: as §1

[21] = target: T1, human ROR2 expressed on the cell surface; experiment: flow cytometry, SKBR3 cells (breast CA); design: reference not given here
Protocol: as §1

[22] = target: T1, human ROR2 expressed on the cell surface; experiment: flow cytometry, RG187 cells (osteosarcoma); design: unit not given here
Protocol: as §1

[23] = target: T1, human ROR2 expressed on the cell surface; experiment: flow cytometry, H69 cells (SCLC); design: unit not given here
Protocol: as §1

[24] = target: T1, human ROR2 expressed on the cell surface; experiment: flow cytometry, CHP100 cells (EW/PNET); design: unit not given here
Protocol: as §1

[25] = target: T1, human ROR2 expressed on the cell surface; experiment: flow cytometry, JN DSRCT cells (DSRCT); design: unit not given here
Protocol: as §1

[26] = target: T1, human ROR2 expressed on the cell surface; experiment: flow cytometry, SKHEP-1 cells (HCC); design: unit not given here
Protocol: as §1

[27] = target: T1, human ROR2 expressed on the cell surface; experiment: flow cytometry, HTB37-Caco2 cells (CRC); design: unit not given here
Protocol: as §1

T1 sequence (Q01974 34-943 limits assumed): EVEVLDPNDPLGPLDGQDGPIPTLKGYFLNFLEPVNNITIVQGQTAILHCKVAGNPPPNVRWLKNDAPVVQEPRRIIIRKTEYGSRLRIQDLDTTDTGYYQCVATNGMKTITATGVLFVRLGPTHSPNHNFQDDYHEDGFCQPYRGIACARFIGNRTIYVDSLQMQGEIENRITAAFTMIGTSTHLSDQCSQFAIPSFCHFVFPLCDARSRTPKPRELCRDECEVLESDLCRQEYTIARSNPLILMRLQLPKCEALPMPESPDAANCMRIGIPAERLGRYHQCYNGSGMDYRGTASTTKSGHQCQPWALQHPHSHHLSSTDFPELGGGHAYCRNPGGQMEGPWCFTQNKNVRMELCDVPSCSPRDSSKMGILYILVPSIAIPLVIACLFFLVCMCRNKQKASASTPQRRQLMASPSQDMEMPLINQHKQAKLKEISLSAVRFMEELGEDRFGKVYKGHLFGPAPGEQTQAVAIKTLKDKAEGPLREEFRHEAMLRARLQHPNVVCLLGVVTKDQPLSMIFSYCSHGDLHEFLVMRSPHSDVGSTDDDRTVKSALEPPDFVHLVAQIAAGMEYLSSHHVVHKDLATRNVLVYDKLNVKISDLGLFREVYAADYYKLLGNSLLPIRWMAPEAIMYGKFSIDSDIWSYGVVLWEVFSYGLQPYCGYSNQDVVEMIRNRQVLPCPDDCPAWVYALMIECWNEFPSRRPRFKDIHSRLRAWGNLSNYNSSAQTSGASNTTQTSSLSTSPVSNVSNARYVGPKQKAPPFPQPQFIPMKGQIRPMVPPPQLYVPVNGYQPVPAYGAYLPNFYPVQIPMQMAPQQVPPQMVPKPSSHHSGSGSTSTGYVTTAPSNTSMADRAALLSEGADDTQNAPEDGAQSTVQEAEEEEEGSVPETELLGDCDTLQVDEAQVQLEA
T2 sequence (Q01974 34-403): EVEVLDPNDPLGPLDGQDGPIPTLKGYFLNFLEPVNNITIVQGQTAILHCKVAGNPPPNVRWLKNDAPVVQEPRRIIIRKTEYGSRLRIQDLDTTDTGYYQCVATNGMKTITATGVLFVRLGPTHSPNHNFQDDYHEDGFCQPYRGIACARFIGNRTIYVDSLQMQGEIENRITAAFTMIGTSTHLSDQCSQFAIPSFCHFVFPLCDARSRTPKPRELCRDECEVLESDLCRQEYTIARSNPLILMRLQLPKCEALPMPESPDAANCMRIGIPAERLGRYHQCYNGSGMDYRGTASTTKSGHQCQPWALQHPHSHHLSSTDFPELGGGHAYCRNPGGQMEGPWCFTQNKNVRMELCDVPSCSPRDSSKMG

binding intensity [1]: 17 | binding intensity [2]: 4 | binding intensity [3]: 4 | binding intensity [4]: 39 | binding intensity [5]: 4 | binding intensity [6]: 37 | binding intensity [7]: 5 | binding intensity [8]: 113 | binding intensity [9]: 10 | binding intensity [10]: 4 | binding intensity [11]: 4 | binding intensity [12]: 5 | binding intensity [13]: 1 | binding intensity [14]: 26 | binding intensity [15]: 3 | binding intensity [16]: 4 | binding intensity [17]: 279 | Kd [18]: 0.063 nM | koff [18]: 4.45e-05 s⁻¹ | kon [18]: 706000 M⁻¹ s⁻¹ | binding intensity [19]: 29 | binding intensity [20]: 4 | binding intensity [21]: 5 | binding intensity [22]: 4 | binding intensity [23]: 9 | binding intensity [24]: 7 | binding intensity [25]: 3 | binding intensity [26]: 21 | binding intensity [27]: 6
B1: ROR2-240 full length human IgG1 antibody (antibody, V domains shown)
VH: QITLKESGPELVKPTQTLTLTCTFSGFSLSTSGMSVSWIRQPPGKALEWLARIDWDDDKYYSTSLKTRLTISKDTSKNQVVLTMTNTDPVDTATYYCARGFYLAYGSYDSWGQGTLVTVSS
VL: QSALTQPASVSGSPGQSITISCTGTSGDVGGYNYVSWYQHHPGKAPKLIIYDVNKRPSGFSDRFSGSKSGNTASLTISGLQAEDEADYYCSSYTSTSTVFGGGTKLTVLG
notes: also called clone #240 IgG1

binding intensity [1]: 32 | binding intensity [2]: 26 | binding intensity [3]: 11 | binding intensity [4]: 52 | binding intensity [5]: 30 | binding intensity [6]: 34 | binding intensity [7]: 116 | binding intensity [8]: 170 | binding intensity [9]: 46 | binding intensity [10]: 35 | binding intensity [11]: 9 | binding intensity [12]: 22 | binding intensity [13]: 7 | binding intensity [14]: 26 | binding intensity [15]: 10 | binding intensity [16]: 37 | binding intensity [17]: 273 | Kd [18]: 0.164 nM | koff [18]: 0.000432 s⁻¹ | kon [18]: 2.63e+06 M⁻¹ s⁻¹ | binding intensity [19]: 24 | binding intensity [20]: 5 | binding intensity [21]: 48 | binding intensity [22]: 44 | binding intensity [23]: 9 | binding intensity [24]: 30 | binding intensity [25]: 50 | binding intensity [26]: 42 | binding intensity [27]: 37
B2: ROR2-23 full length human IgG1 antibody (antibody, V domains shown)
VH: EVQLVQSGAEVKKPGESLKISCQGSGYRFSKYWIGWVRQMPGKGLEWMGIIYPGDSDTRYSPSFQGQVTISADKSISTAYLQWSSLKASDTAMYYCARSFSSFIYDYWGQGTLVTVSS
VL: ETTLTQSPGTLSVSPGERATLSCRASQSVSSNLAWYQQKRGQAPRLLIYGASTRATGIPVRFSGSGSGTEFTLTISRLEPEDFAVYYCQQYGRSPLTFGGGTKVDIKR
notes: The light chain of clone 023 is labelled kappa; also called clone #23; clone #023 IgG1

binding intensity [1]: 20 | binding intensity [2]: 7 | binding intensity [3]: 7 | binding intensity [4]: 29 | binding intensity [5]: 11 | binding intensity [6]: 28 | binding intensity [7]: 36 | binding intensity [8]: 8 | binding intensity [9]: 21 | binding intensity [10]: 7 | binding intensity [11]: 5 | binding intensity [12]: 12 | binding intensity [13]: 2 | binding intensity [14]: 21 | binding intensity [15]: 6 | binding intensity [16]: 20 | binding intensity [17]: 244 | Kd [18]: 0.715 nM | koff [18]: 0.000608 s⁻¹ | kon [18]: 851000 M⁻¹ s⁻¹ | binding intensity [19]: 16 | binding intensity [20]: 8 | binding intensity [21]: 15 | binding intensity [22]: 19 | binding intensity [23]: 24 | binding intensity [24]: 18 | binding intensity [25]: 5 | binding intensity [26]: 23 | binding intensity [27]: 13
B3: ROR2-27 full length human IgG1 antibody (antibody, V domains shown)
VH: QVQLVESGAEVKKPGESLKISCKASGYSFSNYWIGWVRQMPGKGLEWMGIIYPDDSDTRYSPSFQGQVTISADKSISTAYLQWYSLKVADTAKYYCVRPRGAFDIWGQGTTVTVSS
VL: QSVLTQPPSVSGAPGQRVTISCTGSSSNIGAGHAVHWYQQLPGTAPKLLIYDNANRPSGVPDRFSGSQSGTSASLAITGLQTGDEADYYCGTWDDSPSAYVFGTGTKVTVLG
notes: also called clone #27; clone #027 IgG1

binding intensity [1]: 56 | binding intensity [2]: 24 | binding intensity [3]: 23 | binding intensity [4]: 60 | binding intensity [5]: 36 | binding intensity [6]: 68 | binding intensity [7]: 42 | binding intensity [8]: 141 | binding intensity [9]: 12 | binding intensity [10]: 22 | binding intensity [11]: 12 | binding intensity [12]: 12 | binding intensity [13]: 5 | binding intensity [14]: 58 | binding intensity [15]: 19 | binding intensity [16]: 17 | binding intensity [17]: 352 | Kd [18]: 0.31 nM | koff [18]: 0.000538 s⁻¹ | kon [18]: 1.74e+06 M⁻¹ s⁻¹ | binding intensity [19]: 50 | binding intensity [20]: 45 | binding intensity [21]: 27 | binding intensity [22]: 29 | binding intensity [23]: 131 | binding intensity [24]: 16 | binding intensity [25]: 27 | binding intensity [26]: 53 | binding intensity [27]: 24
B4: ROR2-241 full length human IgG1 antibody (antibody, V domains shown)
VH: EVQLVQSGAEVKKPGASVKVSCKASGYTFTNYYIHWVRQAPGQGLEWMGIINPTSGRTRYAQRFQGRVTMTRDTSTNTVYMDLSSLRSEDTAMYYCARSGYYWGVNGDQWGQGTLVTVSS
VL: SYELTQPLSVSVALGQTARITCGGNNIGSKNVHWYQQKPGQAPVLVIYRDSNRPSGIPERFSGSNSGNTATLTISRAQAGDEADYYCQVWDSSIVVFGGGTKLTVLG
